One test addresses T1, CD96 (UniProt P40200).
T1 sequence (looked up): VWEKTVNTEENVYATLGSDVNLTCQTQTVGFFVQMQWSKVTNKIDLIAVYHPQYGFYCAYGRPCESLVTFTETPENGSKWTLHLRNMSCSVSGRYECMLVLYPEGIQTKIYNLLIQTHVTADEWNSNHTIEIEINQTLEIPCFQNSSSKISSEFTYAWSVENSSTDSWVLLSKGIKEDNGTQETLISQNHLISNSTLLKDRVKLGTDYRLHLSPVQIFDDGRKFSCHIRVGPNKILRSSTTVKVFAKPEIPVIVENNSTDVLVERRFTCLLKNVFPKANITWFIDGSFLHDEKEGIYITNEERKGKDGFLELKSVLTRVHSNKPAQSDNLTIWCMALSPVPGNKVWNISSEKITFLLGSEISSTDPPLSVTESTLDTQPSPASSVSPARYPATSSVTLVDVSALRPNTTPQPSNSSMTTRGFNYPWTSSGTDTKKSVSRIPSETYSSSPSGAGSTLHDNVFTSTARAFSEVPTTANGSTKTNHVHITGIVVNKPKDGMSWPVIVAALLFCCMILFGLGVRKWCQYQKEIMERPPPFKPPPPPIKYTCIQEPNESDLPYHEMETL
The test can be described thus: flow cytometry on cells expressing the target, 20 nM Fc fusion. A general note: Flow cytometry measures light scatter and fluorescence of single cells or particles in a stream.

In test [1] the target is CD80 expressed on cells (human) (UniProt P33681). The test can be described thus: flow cytometry; 20 nM protein on cells expressing CD80.
Test [2] addresses PD-1 expressed on cells (Homo sapiens (Human)) (UniProt Q15116). The test can be described thus: flow cytometry; 20 nM protein on cells expressing PD-1.
Test [3] deals with human CTLA-4, full-length, on transduced CHO cells (human) (UniProt P16410). The test can be described thus: flow cytometry, CHO cells expressing huCTLA4, PE anti-human Fc.
Test [4] addresses PD-1 expressed on cells (Homo sapiens (Human)) (UniProt Q15116). The test can be described thus: flow cytometry; 20 nM Fc fusion on cells expressing PD-1.

Where “and” joins values, the source holds several entries; their conditions need not be identical. Identical values can stand only once.

Chain of PD-1 expressed on cells (Homo sapiens (Human)) (Q15116 21-288): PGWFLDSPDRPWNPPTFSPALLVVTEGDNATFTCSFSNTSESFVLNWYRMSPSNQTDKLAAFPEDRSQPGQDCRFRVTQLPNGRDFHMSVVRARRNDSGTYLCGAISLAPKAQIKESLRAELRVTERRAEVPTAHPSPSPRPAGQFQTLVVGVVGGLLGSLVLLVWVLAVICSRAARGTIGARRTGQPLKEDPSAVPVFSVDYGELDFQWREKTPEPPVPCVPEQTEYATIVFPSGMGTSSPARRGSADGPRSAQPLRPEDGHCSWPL
Chain of CD80 expressed on cells (human) (P33681 35-288): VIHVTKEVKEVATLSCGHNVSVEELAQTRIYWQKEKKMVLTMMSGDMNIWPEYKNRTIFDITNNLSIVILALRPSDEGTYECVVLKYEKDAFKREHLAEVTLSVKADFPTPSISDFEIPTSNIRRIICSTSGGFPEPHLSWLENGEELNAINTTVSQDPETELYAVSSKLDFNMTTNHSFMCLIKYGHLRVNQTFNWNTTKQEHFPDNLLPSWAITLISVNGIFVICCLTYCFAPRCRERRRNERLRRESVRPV
Chain of human CTLA-4, full-length, on transduced CHO cells (human) (P16410 36-223): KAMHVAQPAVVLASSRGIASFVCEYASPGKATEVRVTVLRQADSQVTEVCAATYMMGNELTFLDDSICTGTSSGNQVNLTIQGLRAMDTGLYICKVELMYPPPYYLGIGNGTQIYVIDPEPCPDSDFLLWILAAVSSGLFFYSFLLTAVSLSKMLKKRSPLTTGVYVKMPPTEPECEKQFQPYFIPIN

In the case of “CD112 A112V IgV-Fc (from UniProt Q92692 32-158) (Fc fusion)”, in the test with CD96, the MFI at 20 nM was 1210 MFI and 1180 MFI. In the case of Fc Control, the MFI at 20 nM came out at 132 MFI in test [1] and 59 MFI in test [2]. Substance “variant CD80 IgV-Fc R29H/E35D/M43V/M47I/I49V (from UniProt P33681 35-141) (Fc fusion)” registered an MFI at 33.3 nM in test [3] of 4690 MFI. In turn, “variant PD-L1 G15A/I36T/V129D/R195G Fc fusion (from UniProt Q9NZQ7 19-238)” displayed an MFI at 20 nM in test [4] of 125 MFI.

Values taken from patent US20210130436A1.
